Laboratory results published in patent US12099068B2, “Biomarkers for graft-versus-host disease” (Incyte Corporation, priority 2018, dated 2024).

Tested on: plasma proteins
Assay: Plasma proteins modulated between baseline and day 28 in responders (CR, VGPR, PR; n = 19), Example 6 (Table 13)
Format: in vivo, human
Conditions: plasma protein (OLINK NPX); responders (CR, VGPR, PR; n = 19); itacitinib 200 mg or 300 mg QD with corticosteroids; day 28 vs baseline
In short: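 Plasma at baseline/screening and day 28 profiled for >1000 proteins by OLINK proximity extension assay, reported as NPX (log2). Steroid-naive and steroid-refractory patients pooled. Paired and unpaired t tests, ANOVA and Pearson correlation applied; significance at P<0.05.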

B1: CLEC5A (protein, UniProt Q9NY25 1-188, looked up)
C-type lectin domain family 5 …: MNWHMIISGLIVVVLKVVGMTLFLLYFPQIFNKSNDGFTTTRSYGTVSQIFGSSSPSPNGFITTRSYGTVCPKDWEFYQARCFFLSTSESSWNESRDFCKGKGSTLAIVNTPEKLKFLQDITDAEKYFIGLIYHREEKRWRWINNSVFNGNVTNQNQNFNCATIGLTKTFDAASCDISYRRICEKNAK
Fold Change, Decreased Expression from Baseline to Day 28: −1.3618

B2: FR-gamma (protein, UniProt P41439 23-245, looked up)
Folate receptor gamma: QPRSARARTDLLNVCMNAKHHKTQPSPEDELYGQCSPWKKNACCTASTSQELHKDTSRLYNFNWDHCGKMEPTCKRHFIQDSCLYECSPNLGPWIRQVNQSWRKERILNVPLCKEDCERWWEDCRTSYTCKSNWHKGWNWTSGINECPAGALCSTFESYFPTPAALCEGLWSHSFKVSNYSRGSGRCIQMWFDSAQGNPNEEVAKFYAAAMNAGAPSRGIIDS
Fold Change, Decreased Expression from Baseline to Day 28: −1.2115

B3: RELT (protein, UniProt Q969Z4 26-430, looked up)
Tumor necrosis factor …: STTLWQCPPGEEPDLDPGQGTLCRPCPPGTFSAAWGSSPCQPHARCSLWRRLEAQVGMATRDTLCGDCWPGWFGPWGVPRVPCQPCSWAPLGTHGCDEWGRRARRGVEVAAGASSGGETRQPGNGTRAGGPEETAAQYAVIAIVPVFCLMGLLGILVCNLLKRKGYHCTAHKEVGPGPGGGGSGINPAYRTEDANEDTIGVLVRLITEKKENAAALEELLKEYHSKQLVQTSHRPVSKLPPAPPNVPHICPHRHHLHTVQGLASLSGPCCSRCSQKKWPEVLLSPEAVAATTPVPSLLPNPTRVPKAGAKAGRQGEITILSVGRFRVARIPEQRTSSMVSEVKTITEAGPSWGDLPDSPQPGLPPEQQALLGSGGSRTKWLKPPAENKAEENRYVVRLSESNLVI
Fold Change, Decreased Expression from Baseline to Day 28: −1.3317

B4: SELE (protein, UniProt P16581 22-610, looked up)
E-selectin: WSYNTSTEAMTYDEASAYCQQRYTHLVAIQNKEEIEYLNSILSYSPSYYWIGIRKVNNVWVWVGTQKPLTEEAKNWAPGEPNNRQKDEDCVEIYIKREKDVGMWNDERCSKKKLALCYTAACTNTSCSGHGECVETINNYTCKCDPGFSGLKCEQIVNCTALESPEHGSLVCSHPLGNFSYNSSCSISCDRGYLPSSMETMQCMSSGEWSAPIPACNVVECDAVTNPANGFVECFQNPGSFPWNTTCTFDCEEGFELMGAQSLQCTSSGNWDNEKPTCKAVTCRAVRQPQNGSVRCSHSPAGEFTFKSSCNFTCEEGFMLQGPAQVECTTQGQWTQQIPVCEAFQCTALSNPERGYMNCLPSASGSFRYGSSCEFSCEQGFVLKGSKRLQCGPTGEWDNEKPTCEAVRCDAVHQPPKGLVRCAHSPIGEFTYKSSCAFSCEEGFELHGSTQLECTSQGQWTEEVPSCQVVKCSSLAVPGKINMSCSGEPVFGTVCKFACPEGWTLNGSAARTCGATGHWSGLLPTCEAPTESNIPLVAGLSAAGLSLLTLAPFLLWLRKCLRKAKKFVPASSCQSLESDGSYQKPSYIL
Fold Change, Decreased Expression from Baseline to Day 28: −1.5291

B5: SELL (protein, UniProt P14151 39-372, looked up)
L-selectin: WTYHYSEKPMNWQRARRFCRDNYTDLVAIQNKAEIEYLEKTLPFSRSYYWIGIRKIGGIWTWVGTNKSLTEEAENWGDGEPNNKKNKEDCVEIYIKRNKDAGKWNDDACHKLKAALCYTASCQPWSCSGHGECVEIINNYTCNCDVGYYGPQCQFVIQCEPLEAPELGTMDCTHPLGNFSFSSQCAFSCSEGTNLTGIEETTCGPFGNWSSPEPTCQVIQCEPLSAPDLGIMNCSHPLASFSFTSACTFICSEGTELIGKKKTICESSGIWSNPSPICQKLDKSFSMIKEGDYNPLFIPVAVMVTAFSGLAFIIWLARRLKKGKKSKRSMNDPY
Fold Change, Decreased Expression from Baseline to Day 28: −1.4428

B6: PSP-D (protein, UniProt P35247 21-375, looked up)
Pulmonary …: AEMKTYSHRTMPSACTLVMCSSVESGLPGRDGRDGREGPRGEKGDPGLPGAAGQAGMPGQAGPVGPKGDNGSVGEPGPKGDTGPSGPPGPPGVPGPAGREGPLGKQGNIGPQGKPGPKGEAGPKGEVGAPGMQGSAGARGLAGPKGERGVPGERGVPGNTGAAGSAGAMGPQGSPGARGPPGLKGDKGIPGDKGAKGESGLPDVASLRQQVEALQGQVQHLQAAFSQYKKVELFPNGQSVGEKIFKTAGFVKPFTEAQLLCTQAGGQLASPRSAAENAALQQLVVAKNEAAFLSMTDSKTEGKFTYPTGESLVYSNWAPGEPNDDGGSEDCVEIFTNGKWNDRACGEKRLVVCEF
Fold Change, Decreased Expression from Baseline to Day 28: −1.2426

B7: SDC4 (protein, UniProt P31431 19-198, looked up)
Syndecan-4: ESIRETEVIDPQDLLEGRYFSGALPDDEDVVGPGQESDDFELSGSGDLDDLEDSMIGPEVVHPLVPLDNHIPERAGSGSQVPTEPKKLEENEVIPKRISPVEESEDVSNKVSMSSTVQGSNIFERTEVLAALIVGGIVGILFAVFLILLLMYRMKKKDEGSYDLGKKPIYKKAPTNEFYA
Fold Change, Decreased Expression from Baseline to Day 28: −1.4678

B8: CD5 (protein, UniProt P06127 25-495, looked up)
T-cell surface glycoprotein …: RLSWYDPDFQARLTRSNSKCQGQLEVYLKDGWHMVCSQSWGRSSKQWEDPSQASKVCQRLNCGVPLSLGPFLVTYTPQSSIICYGQLGSFSNCSHSRNDMCHSLGLTCLEPQKTTPPTTRPPPTTTPEPTAPPRLQLVAQSGGQHCAGVVEFYSGSLGGTISYEAQDKTQDLENFLCNNLQCGSFLKHLPETEAGRAQDPGEPREHQPLPIQWKIQNSSCTSLEHCFRKIKPQKSGRVLALLCSGFQPKVQSRLVGGSSICEGTVEVRQGAQWAALCDSSSARSSLRWEEVCREQQCGSVNSYRVLDAGDPTSRGLFCPHQKLSQCHELWERNSYCKKVFVTCQDPNPAGLAAGTVASIILALVLLVVLLVVCGPLAYKKLVKKFRQKKQRQWIGPTGMNQNMSFHRNHTATVRSHAENPTASHVDNEYSQPPRNSHLSAYPALEGALHRSSMQPDNSSDSDYDLHGAQRL
Fold Change, Decreased Expression from Baseline to Day 28: −1.9942

B9: BID (protein, UniProt P55957 1-195, looked up)
BH3-interacting domain death …: MDCEVNNGSSLRDECITNLLVFGFLQSCSDNSFRRELDALGHELPVLAPQWEGYDELQTDGNRSSHSRLGRIEADSESQEDIIRNIARHLAQVGDSMDRSIPPGLVNGLALQLRNTSRSEEDRNRDLATALEQLLQAYPRDMEKEKTMLVLALLLAKKVASHTPSLLRDVFHTTVNFINQNLRTYVRSLARNGMD
Fold Change, Decreased Expression from Baseline to Day 28: −1.382

B10: ADAM 8 (protein, UniProt P78325 17-824, looked up)
Disintegrin and …: IAPSRPWALMEQYEVVLPWRLPGPRVRRALPSHLGLHPERVSYVLGATGHNFTLHLRKNRDLLGSGYTETYTAANGSEVTEQPRGQDHCFYQGHVEGYPDSAASLSTCAGLRGFFQVGSDLHLIEPLDEGGEGGRHAVYQAEHLLQTAGTCGVSDDSLGSLLGPRTAAVFRPRPGDSLPSRETRYVELYVVVDNAEFQMLGSEAAVRHRVLEVVNHVDKLYQKLNFRVVLVGLEIWNSQDRFHVSPDPSVTLENLLTWQARQRTRRHLHDNVQLITGVDFTGTTVGFARVSAMCSHSSGAVNQDHSKNPVGVACTMAHEMGHNLGMDHDENVQGCRCQERFEAGRCIMAGSIGSSFPRMFSDCSQAYLESFLERPQSVCLANAPDLSHLVGGPVCGNLFVERGEQCDCGPPEDCRNRCCNSTTCQLAEGAQCAHGTCCQECKVKPAGELCRPKKDMCDLEEFCDGRHPECPEDAFQENGTPCSGGYCYNGACPTLAQQCQAFWGPGGQAAEESCFSYDILPGCKASRYRADMCGVLQCKGGQQPLGRAICIVDVCHALTTEDGTAYEPVPEGTRCGPEKVCWKGRCQDLHVYRSSNCSAQCHNHGVCNHKQECHCHAGWAPPHCAKLLTEVHAASGSLPVFVVVVLVLLAVVLVTLAGIIVYRKARSRILSRNVAPKTTMGRSNPLFHQAASRVPAKGGAPAPSRGPQELVPTTHPGQPARHPASSVALKRPPPAPPVTVSSPPFPVPVYTRQAPKQVIKPTFAPPVPPVKPGAGAANPGPAEGAVGPKVALKPPIQRKQGAGAPTAP
Fold Change, Decreased Expression from Baseline to Day 28: −1.3896

B11: AZU1 (protein, UniProt P20160 27-248, looked up)
Azurocidin: IVGGRKARPRQFPFLASIQNQGRHFCGGALIHARFVMTAASCFQSQNPGVSTVVLGAYDLRRRERQSRQTFSISSMSENGYDPQQNLNDLMLLQLDREANLTSSVTILPLPLQNATVEAGTRCQVAGWGSQRSGGRLSRFPRFVNVTVTPEDQCRPNNVCTGVLTRRGGICNGDGGTPLVCEGLAHGVASFSLGPCGRGPDFFTRVALFRDWIDGVLNNPGP
Fold Change, Decreased Expression from Baseline to Day 28: −2.0976

B12: BCR (protein, UniProt P11274 1-1271, looked up)
Breakpoint cluster region …: MVDPVGFAEAWKAQFPDSEPPRMELRSVGDIEQELERCKASIRRLEQEVNQERFRMIYLQTLLAKEKKSYDRQRWGFRRAAQAPDGASEPRASASRPQPAPADGADPPPAEEPEARPDGEGSPGKARPGTARRPGAAASGERDDRGPPASVAALRSNFERIRKGHGQPGADAEKPFYVNVEFHHERGLVKVNDKEVSDRISSLGSQAMQMERKKSQHGAGSSVGDASRPPYRGRSSESSCGVDGDYEDAELNPRFLKDNLIDANGGSRPPWPPLEYQPYQSIYVGGMMEGEGKGPLLRSQSTSEQEKRLTWPRRSYSPRSFEDCGGGYTPDCSSNENLTSSEEDFSSGQSSRVSPSPTTYRMFRDKSRSPSQNSQQSFDSSSPPTPQCHKRHRHCPVVVSEATIVGVRKTGQIWPNDGEGAFHGDADGSFGTPPGYGCAADRAEEQRRHQDGLPYIDDSPSSSPHLSSKGRGSRDALVSGALESTKASELDLEKGLEMRKWVLSGILASEETYLSHLEALLLPMKPLKAAATTSQPVLTSQQIETIFFKVPELYEIHKEFYDGLFPRVQQWSHQQRVGDLFQKLASQLGVYRAFVDNYGVAMEMAEKCCQANAQFAEISENLRARSNKDAKDPTTKNSLETLLYKPVDRVTRSTLVLHDLLKHTPASHPDHPLLQDALRISQNFLSSINEEITPRRQSMTVKKGEHRQLLKDSFMVELVEGARKLRHVFLFTDLLLCTKLKKQSGGKTQQYDCKWYIPLTDLSFQMVDELEAVPNIPLVPDEELDALKIKISQIKNDIQREKRANKGSKATERLKKKLSEQESLLLLMSPSMAFRVHSRNGKSYTFLISSDYERAEWRENIREQQKKCFRSFSLTSVELQMLTNSCVKLQTVHSIPLTINKEDDESPGLYGFLNVIVHSATGFKQSSNLYCTLEVDSFGYFVNKAKTRVYRDTAEPNWNEEFEIELEGSQTLRILCYEKCYNKTKIPKEDGESTDRLMGKGQVQLDPQALQDRDWQRTVIAMNGIEVKLSVKFNSREFSLKRMPSRKQTGVFGVKIAVVTKRERSKVPYIVRQCVEEIERRGMEEVGIYRVSGVATDIQALKAAFDVNNKDVSVMMSEMDVNAIAGTLKLYFRELPEPLFTDEFYPNFAEGIALSDPVAKESCMLNLLLSLPEANLLTFLFLLDHLKRVAEKEAVNKMSLHNLATVFGPTLLRPSEKESKLPANPSQPITMTDSWSLEVMSQVQVLLYFLQLEAIPAPDSKRQSILFSTEV
Fold Change, Decreased Expression from Baseline to Day 28: −1.8219
